Data on one substance can be found in patent US20250388637A1.

In the assay the target is Recombinant human PDGF-B (human) (UniProt P01127).

Regarding MBP-GCN4-Prodomain, the inhibition of PDGF-B stimulated PDGFR-β phosphorylation, BHK-21/PDGFR-β cells worked out at 16%.
